From patent publication US20040072207A1 (WHITEHEAD INSTITUTE FOR BIOMEDICAL RESEARCH, published 2004) come the findings set out here.

The target of the experiment is mTOR (mammalian target of rapamycin), endogenous protein of human cell lines (human, UniProt P42345 1-2549). Nature of the experiment: co-IP from transfected HEK293T cells, western blot (FIG. 6B, 8D). (Immunoblotting shows a protein as a band on a membrane.)

B1: HA-raptor mut1 (194YDC196-AAA) (other, not shown: small tags and cut ends)
chain: MESEMLQSPLLGLGEEDEADLTDWNLPLAFMKKRHCEKIEGSKSLAQSWRMKDRMKTVSVALVLCLNVGVDPPDVVKTTPCARLECWIDPLSMGPQKALETIGANLQKQYENWQPRARYKQSLDPTVDEVKKLCTSLRRNAKEERVLFHYNGHGVPRPTVNGEVWVFNKNYTQYIPLSIYDLQTWMGSPSIFVAAASNAGLIVKSFKQFALQREQELEVAAINPNHPLAQMPLPPSMKNCIQLAACEATELLPMIPDLPADLFTSCLTTPIKIALRWFCMQKCVSLVPGVTLDLIEKIPGRLNDRRTPLGELNWIFTAITDTIAWNVLPRDLFQKLFRQDLLVASLFRNFLLAERIMRSYNCTPVSSPRLPPTYMHAMWQAWDLAVDICLSQLPTIIEEGTAFRHSPFFAEQLTAFQVWLTMGVENRNPPEQLPIVLQVLLSQVHRLRALDLLGRFLDLGPWAVSLALSVGIFPYVLKLLQSSARELRPLLVFIWAKILAVDSSCQADLVKDNGHKYFLSVLADPYMPAEHRTMTAFILAVIVNSYHTGQEACLQGNLIAICLEQLNDPHPLLRQWVAICLGRIWQNFDSARWCGVRDSAHEKLYSLLSDPIPEVRCAAVFALGTFVGNSAERTDHSTTIDHNVAMMLAQLVSDGSPMVRKELVVALSHLVVQYESNFCTVALQFIEEEKNYALPSPATTEGGSLTPVRDSPCTPRLRSVSSYGNIRAVATARSLNKSLQNLSLTEESGGAVAFSPGNLSTSSSASSTLGSPENEEHILSFETIDKMRRASSYSSLNSLIGVSFNSVYTQIWRVLLHLAADPYPEVSDVAMKVLNSIAYKATVNARPQRVLDTSSLTQSAPASPTNKGVHIHQAGGSPPASSTSSSSLTNDVAKQPVSRDLPSGRPGTTGPAGAQYTPHSHQFPRTRKMFDKGPEQTADDADDAAGHKSFISATVQTGFCDWSARYFAQPVMKIPEEHDLESQIRKEREWRFLRNSRVRRQAQQVIQKGITRLDDQIFLNRNPGVPSVVKFHPFTPCIAVADKDSICFWDWEKGEKLDYFHNGNPRYTRVTAMEYLNGQDCSLLLTATDDGAIRVWKNFADLEKNPEMVTAWQGLSDMLPTTRGAGMVVDWEQETGLLMSSGDVRIVRIWDTDREMKVQDIPTGADSCVTSLSCDSHRSLIVAGLGDGSIRVYDRRMALSECRVMTYREHTAWVVKASLQKRPDGHIVSVSVNGDVRIFDPRMPESVNVLQIVKGLTALDIHPQADLIACGSVNQFTAIYNSSGELINNIKYYDGFMGQRVGAISCLAFHPHWPHLAVGSNDYYISVYSVEKRVR
notes: also called mutant 1
Turning to B1, the binding result is listed as “no binding”.
